# From US20140294863A1, “SERUM ALBUMIN BINDING PEPTIDES FOR TUMOR TARGETING” (GENENTECH, INC., priority 2002, published 2014)
# Marks after values point to notes of the source that are not given here. Where a SMILES comes first, the peptide text is derived from it. Bridges are numbered along the chain shown (N, C = ends). Where no end group is shown, it is not given here.
# How the values were obtained:
# [1] = target: T1, rabbit albumin (Oryctolagus cuniculus, UniProt P49065); experiment: SA08b binding assay (peptide competition ELISA), rabbit albumin; parameters: purchased Sigma; conditions: for effect on SA08b peptide binding to rabbit albumin: concentrations of up to 100 μM, data not shown; for improvement in IC50 relative to core sequence of about 10 amino acids: rabbit albumin
# T1 sequence (P49065 25-608): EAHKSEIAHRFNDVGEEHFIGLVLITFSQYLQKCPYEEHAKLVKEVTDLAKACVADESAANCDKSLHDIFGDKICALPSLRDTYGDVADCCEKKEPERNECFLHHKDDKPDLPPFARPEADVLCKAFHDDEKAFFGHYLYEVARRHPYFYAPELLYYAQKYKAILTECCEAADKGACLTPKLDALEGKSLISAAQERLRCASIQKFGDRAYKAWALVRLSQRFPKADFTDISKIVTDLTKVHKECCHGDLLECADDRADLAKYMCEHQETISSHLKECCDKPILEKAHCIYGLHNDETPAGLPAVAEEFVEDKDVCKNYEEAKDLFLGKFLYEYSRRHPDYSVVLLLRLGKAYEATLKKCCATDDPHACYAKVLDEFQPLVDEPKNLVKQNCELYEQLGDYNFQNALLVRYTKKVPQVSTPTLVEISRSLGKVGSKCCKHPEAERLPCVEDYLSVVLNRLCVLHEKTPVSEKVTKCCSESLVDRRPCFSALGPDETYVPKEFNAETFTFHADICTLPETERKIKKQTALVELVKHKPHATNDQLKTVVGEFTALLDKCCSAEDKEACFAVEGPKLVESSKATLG
# Description: (§1) Plates were blocked as described above.
# (§2) Peptides corresponding to identified phage sequences were synthesized and their affinity for rat, rabbit or mouse albumin measured using the SA08b binding assay.
# [2] = target: T2, rat albumin (Rattus norvegicus, UniProt P02770); experiment: SA08b binding assay (peptide competition ELISA), rat albumin; parameters: purchased Sigma; conditions: concentrations of up to 100 μM; data not shown
# T2 sequence (P02770 25-608): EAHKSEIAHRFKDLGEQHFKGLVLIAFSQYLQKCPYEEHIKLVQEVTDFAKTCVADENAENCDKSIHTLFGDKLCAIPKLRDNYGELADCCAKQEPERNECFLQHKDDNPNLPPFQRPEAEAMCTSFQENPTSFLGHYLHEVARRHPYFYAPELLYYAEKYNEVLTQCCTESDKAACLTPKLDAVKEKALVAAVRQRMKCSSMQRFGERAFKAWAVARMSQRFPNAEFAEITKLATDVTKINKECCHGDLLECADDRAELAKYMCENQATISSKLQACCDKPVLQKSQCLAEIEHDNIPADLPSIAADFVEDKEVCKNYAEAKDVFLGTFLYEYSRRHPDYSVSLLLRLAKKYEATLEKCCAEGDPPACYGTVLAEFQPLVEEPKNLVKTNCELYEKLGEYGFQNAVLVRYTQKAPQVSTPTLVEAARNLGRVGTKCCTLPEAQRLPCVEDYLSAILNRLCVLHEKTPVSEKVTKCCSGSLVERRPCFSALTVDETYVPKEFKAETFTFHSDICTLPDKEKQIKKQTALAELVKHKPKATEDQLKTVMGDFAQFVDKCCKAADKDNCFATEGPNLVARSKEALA
# Description: as §1, §2
# [3] = Pharmacokinetics of AB.Fab variants in rats (HER2 Binding ELISA); format: in vivo; conditions: Rat; group mean
# Protocol: (§3) All pharmacokinetic (PK) studies were conducted according to protocols approved by the Institutional Animal Care and Use Committee at Genentech, Inc. Sprague Dawley rats were supplied by Charles River Laboratories (Hollister, Calif. USA). New Zealand White (NWZ) rabbits were supplied by Myrtle's Rabbitry (Thompson Station, Tenn. USA). BALB-c mice were supplied by Charles River (Hollister, Calif. USA).
# At pre-dose, and over the course of 7 days post-dose, plasma was collected via a cannula inserted in the jugular vein.
# (§4) Briefly, samples were added to microtiter wells coated with HER2ecd and incubated for 2 hours at room temperature. The wells were washed, and goat anti-huFab-HRP was added and incubated for 1 hour at room temperature. Unbound HRP was removed by washing and enzyme substrate was added to detect bound HRP. […] Concentrations of AB.Fab were extrapolated by comparison to a standard curve of the dosed molecule.
# (§5) For rats and rabbits, concentration versus time profiles for each animal were fit to a two compartment model using, iterative re-weighting to estimate the pharmacokinetic parameters of Area Under the Concentration-Time Curve (AUC), Clearance (CL), Beta Half-Life (t1/2β), Volume of Distribution of the Central Compartment (V1), and Steady State Volume of Distribution (Vss) using WinNonlin® software (Version 3.2, Pharsight, Inc.; Mountain View, Calif.) and group means were calculated.
# [4] = Pharmacokinetics of AB.Fab variants in rabbits (HER2 Binding ELISA); format: in vivo; conditions: Rabbit; group mean
# Protocol: as §3, §4, §5
# [5] = Pharmacokinetics of AB.Fab variants in mice (HER2 Binding ELISA); format: in vivo; conditions: Mouse, group mean profile; for t1/2β: 4D5-H8 fit to one-compartment model (one half life estimate)
# Protocol: as §3
# Over the course of 7 days serum was collected in 3 mice per time point by retro-orbital bleed or cardiac stick.
# as §4
# In mice, a group mean serum concentration versus time profile was determined, producing one estimate for pharmacokinetic parameters for each AB.Fab dosing group. […] AB.Fab variant 4D5-H8 was fit to a one compartment model and estimates for the PK parameters of AUC, CL, Half-Life (t1/2) and V1 were determined using WinNonlin® software (Pharsight, Inc., supra).
# [6] = target: T1, rabbit albumin; experiment: Phage ELISA, phage clones on immobilized rabbit albumin; format: binding; parameters: purchased Sigma; conditions: for phage binding to rabbit albumin at pH 2.9: data not shown
# Protocol: (§6) Phage clones (approximately 10^11 phage) were added to Maxisorp plates coated with rat, rabbit, or human albumin or with mouse, bovine, or rhesus albumin (Sigma), as described above. The microtiter plate was washed with wash buffer and bound phage were detected following incubation with HRP/Anti-M13 Conjugate (Amerisham Pharmacia Biotech, Piscataway, N.J.).
# [7] = target: T2, rat albumin; experiment: Direct Binding ELISA, AB.Fab variants on immobilized rat albumin; parameters: purchased Sigma; conditions: average and SD of at least 3 determinations
# Protocol: (§7) Mouse, rat, or rabbit albumin (Sigma, St. Louis, Mo.) were immobilized onto NUNC Maxisorp™ 96-well plates at 2 ug/ml overnight at 4° C. […] AB.Fab variants were serially diluted in binding buffer and added at 100 μl per well to the immobilized albumin for 30 minutes at 25° C. Unbound AB.Fab variant was removed by washing wells with 0.05% PBS/Tween® 20 and bound AB.Fab variant was detected with goat anti-human Fab′2-HRP for 1 hour at 25° C. Bound HRP was measured with a solution of tetramethylbenzidine (TMB)/H202. After 15 minutes, the reaction was quenched by the addition of 1M phosphoric acid.
# (§8) Initially we explored binding of the AB.Fab variants to immobilized albumin using a Direct Binding ELISA.
# [8] = target: T1, rabbit albumin; experiment: Direct Binding ELISA, AB.Fab variants on immobilized rabbit albumin; parameters: purchased Sigma; conditions: average and SD of at least 3 determinations
# Protocol: as §7, §8
# [9] = target: T3, human albumin (Homo sapiens, UniProt P02768); experiment: Phage ELISA, phage clones on immobilized human albumin; format: binding
# T3 construct: purchased Sigma
# Protocol: as §6
# [10] = target: albumin; experiment: SA08b binding assay / competition ELISA, albumin species not stated; conditions: albumin species not given
# [11] = target: T2, rat albumin; experiment: Solution Binding ELISA, AB.Fab variants with soluble rat albumin; parameters: purchased Sigma; conditions: Rat albumin, as listed in Table 15; read-out: Kd for Albumin
compound,measurement,setting,value
CC[C@H](C)[C@H](NC(=O)[C@H](CC(C)C)NC(=O)[C@H](CCCNC(=N)N)NC(C)=O)C(=O)N[C@@H](CCC(=O)O)C(=O)N[C@@H](CC(=O)O)C(=O)N[C@H](C(=O)N[C@H]1CSSC[C@@H](C(N)=O)NC(=O)CNC(=O)[C@H](Cc2c[nH]c3ccccc23)NC(=O)[C@H](CCCNC(=N)N)NC(=O)[C@@H]2CCCN2C(=O)[C@H](CC(C)C)NC1=O)[C@@H](C)CC [SA35] (Ac-RLIEDICLPRWGC-NH2; disulfide 7-13),IC50,[1],> 250000 nM
"CCCCCCCCCCCCCC(=O)O [myristic acid, reference compound]",effect on SA08b peptide binding to rabbit albumin,[1],no effect
same,effect on SA08b peptide binding to rat albumin,[2],no effect
AB.Fab 4D5-H8 (IEDICLPRWGCLWE; disulfide 5-11 (inferred); also: part of Fab heavy chain),AUC,[3],1890 ± 294 µg·h/mL
same,CL,[3],2.44 ± 0.453 mL/h/kg
same,V1,[3],0.0458 ± 0.00811 L/kg
same,Vss,[3],0.0859 ± 0.0154 L/kg
same,t1/2β,[3],28.0 ± 1.88 h
same,AUC,[4],232 ± 62.7 µg·h/mL
same,CL,[4],1.99 ± 0.477 mL/h/kg
same,V1,[4],0.0296 ± 0.00332 L/kg
same,Vss,[4],0.0659 ± 0.0071 L/kg
same,t1/2β,[4],36.2 ± 7.13 h
same,AUC,[5],2610 µg·h/mL
same,CL,[5],1.91 mL/h/kg
same,Vss,[5],0.0387 L/kg
same,t1/2β,[5],14.0^b hr
AB.Fab 4D5-H4 (DICLPRWGCLWED; disulfide 3-9 (inferred); also: part of Fab heavy chain),AUC,[3],1450 ± 146 µg·h/mL
same,CL,[3],3.24 ± 0.352 mL/h/kg
same,V1,[3],0.0522 ± 0.00421 L/kg
same,Vss,[3],0.076 ± 0.00656 L/kg
same,t1/2β,[3],20.7 ± 1.07 h
same,AUC,[4],127 ± 16.5 µg·h/mL
same,CL,[4],3.58 ± 0.496 mL/h/kg
same,V1,[4],0.0305 ± 0.00167 L/kg
same,Vss,[4],0.0822 ± 0.0102 L/kg
same,t1/2β,[4],28.3 ± 2.88 h
same,AUC,[5],2070 µg·h/mL
same,CL,[5],2.41 mL/h/kg
same,V1,[5],0.0284 L/kg
same,Vss,[5],0.0444 L/kg
same,t1/2β,[5],13.5 h
QRHPEDICLPRWGCLWGDDD [RB-H1],phage binding to rabbit albumin at pH 2.9,[6],no binding
4D5-H10: AB.Fab variant made by deletion in 4D5-H4 (Table 12) (DICLPRWGCLW; disulfide 3-9 (inferred); also: part of Fab heavy chain),EC50,[7],8 ± 0.003 nM
same,EC50,[8],> 2000 nM
AB.Fab 4D5-H10 (DICLPRWGCLW; disulfide 3-9 (inferred); also: part of Fab heavy chain),AUC,[3],541 ± 77.9 µg·h/mL
same,CL,[3],9.21 ± 1.24 mL/h/kg
same,V1,[3],0.0446 ± 0.00204 L/kg
same,Vss,[3],0.0753 ± 0.0092 L/kg
same,t1/2β,[3],10.9 ± 2.86 h
same,AUC,[4],33.7 ± 3.32 µg·h/mL
same,CL,[4],13.5 ± 1.40 mL/h/kg
same,V1,[4],0.0368 ± 0.00412 L/kg
same,Vss,[4],0.0987 ± 0.0141 L/kg
same,t1/2β,[4],12.0 ± 2.21 h
CC[C@H](C)[C@H](NC(=O)[C@H](CC(C)C)NC(=O)[C@H](CCCNC(=N)N)NC(C)=O)C(=O)N[C@@H](CCC(=O)O)C(=O)N[C@@H](CC(=O)O)C(=O)N[C@H](C(=O)N[C@H]1CSSC[C@@H](C(=O)N[C@@H](CC(C)C)C(=O)N[C@@H](Cc2c[nH]c3ccccc23)C(=O)N[C@@H](CCC(=O)O)C(=O)N[C@@H](CC(=O)O)C(N)=O)NC(=O)CNC(=O)[C@H](Cc2c[nH]c3ccccc23)NC(=O)[C@H](CCCNC(=N)N)NC(=O)[C@@H]2CCCN2C(=O)[C@H](CC(C)C)NC1=O)[C@@H](C)CC [SA22] (Ac-RLIEDICLPRWGCLWED-NH2; disulfide 7-13),improvement in IC50 relative to core sequence of about 10 amino acids,[1],60 fold
"4D5-H4: AB.Fab variant of Fab4D5 with shortened albumin-binding peptide on heavy chain, no GGGS linker (Table 12) (DICLPRWGCLWED; disulfide 3-9 (inferred); also: part of Fab heavy chain)",EC50,[8],500 ± 50 nM
"N[C@@H](Cc1c[nH]c2ccccc12)C(=O)O [L-tryptophan, reference compound]",effect on SA08b peptide binding to rabbit albumin,[1],no effect
same,effect on SA08b peptide binding to rat albumin,[2],no effect
"4D5-H8: AB.Fab variant of Fab4D5 with shortened albumin-binding peptide on heavy chain, no GGGS linker (Table 12) (IEDICLPRWGCLWE; disulfide 5-11 (inferred); also: part of Fab heavy chain)",EC50,[8],500 ± 50 nM
"QRQMVDFCLPQWGCLWGDGF [RB, phage clone selected on rat SA, ID 35]",binding to human albumin,[9],capable of binding
same,binding to rabbit albumin,[6]; phage ELISA,capable of binding
"CN(C)c1cccc2c(S(=O)(=O)N(C)CC(=O)O)cccc12 [dansylsarcosine, reference compound]",effect on SA08b peptide binding to rabbit albumin,[1],no effect
same,effect on SA08b peptide binding to rat albumin,[2],no effect
"CC[C@H](C)[C@H](NC(=O)[C@H](CC(=O)O)NC(C)=O)C(=O)N[C@H]1CSSC[C@@H](C(=O)N[C@@H](CC(C)C)C(=O)N[C@@H](Cc2c[nH]c3ccccc23)C(=O)N[C@@H](CCC(=O)O)C(=O)N[C@@H](CC(=O)O)C(N)=O)NC(=O)CNC(=O)[C@H](Cc2c[nH]c3ccccc23)NC(=O)[C@H](CCCNC(=N)N)NC(=O)[C@@H]2CCCN2C(=O)[C@H](CC(C)C)NC1=O [SA26, Ac DICLPRWGCLWED NH2] (Ac-DICLPRWGCLWED-NH2; disulfide 3-9)",improvement in IC50 relative to core sequence of about 10 amino acids,[1],about 8.6 fold
HSQMEDICLPRWGCLWGDEL [RB-B8],phage binding to rabbit albumin at pH 2.9,[6],no binding
CC[C@H](C)[C@H](NC(=O)[C@H](CC(C)C)NC(=O)[C@H](CCCNC(=N)N)NC(C)=O)C(=O)N[C@@H](CCC(=O)O)C(=O)N[C@@H](CC(=O)O)C(=O)N[C@H](C(=O)N[C@H]1CSSC[C@@H](C(=O)N[C@@H](CC(C)C)C(N)=O)NC(=O)CNC(=O)[C@H](Cc2c[nH]c3ccccc23)NC(=O)[C@H](CCCNC(=N)N)NC(=O)[C@@H]2CCCN2C(=O)[C@H](CC(C)C)NC1=O)[C@@H](C)CC [SA33] (Ac-RLIEDICLPRWGCL-NH2; disulfide 7-13),improvement in IC50 relative to core sequence of about 10 amino acids,[1],approximately 6 fold
"[Cl][Cu][Cl] [CuCl2, reference compound]",effect on SA08b peptide binding to rabbit albumin,[1],no effect
same,effect on SA08b peptide binding to rat albumin,[2],no effect
"linear peptide, identical to SA06, but having both Cys residues altered to Ala: linear peptide, identical to SA06, but having both Cys residues altered to Ala (LEYEDIALPKWGALWGGE)",IC50,[10],> 50000 nM
AB.Fab 4D5-H11 (DICLPRWGCL; disulfide 3-9 (inferred); also: part of Fab heavy chain),AUC,[3],57.0 ± 7.39 µg·h/mL
same,CL,[3],80.2 ± 11.8 mL/h/kg
same,V1,[3],0.0487 ± 0.00225 L/kg
same,Vss,[3],0.0816 ± 0.00576 L/kg
same,t1/2β,[3],4.21 ± 0.151 h
same,AUC,[4],24.6 ± 2.74 µg·h/mL
same,CL,[4],20.6 ± 2.24 mL/h/kg
same,V1,[4],0.0404 ± 0.00438 L/kg
same,Vss,[4],0.101 ± 0.0317 L/kg
same,t1/2β,[4],11.9 ± 2.61 h
same,Kd,[11],2500 nM
